Patent US20070224188A1

What follows are substances tested against biotin-labeled soluble FcRn (assay: FcRn ELISA pH 6.0).

Chain of anti-CD20 antibody, IgG1 Fc region, wild type (a, z) (heavy, part): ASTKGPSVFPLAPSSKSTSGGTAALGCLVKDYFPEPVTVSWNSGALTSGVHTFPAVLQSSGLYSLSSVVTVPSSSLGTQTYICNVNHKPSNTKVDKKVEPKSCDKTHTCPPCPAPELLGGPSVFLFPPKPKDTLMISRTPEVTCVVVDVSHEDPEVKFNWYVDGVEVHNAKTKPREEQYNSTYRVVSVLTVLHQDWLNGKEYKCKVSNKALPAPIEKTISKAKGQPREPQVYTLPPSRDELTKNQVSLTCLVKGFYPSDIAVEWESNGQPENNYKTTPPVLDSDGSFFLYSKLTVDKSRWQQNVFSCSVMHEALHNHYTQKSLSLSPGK

Going from anti-CD20 IgG1 D376G (antibody) to anti-CD20 IgG1 P343A (antibody), the FcRn pH6.0 (% of wild type) falls from 135 to 110.

First: anti-CD20 IgG1 E382Y (antibody)
Second: anti-CD20 IgG1 R292E (antibody)
The FcRn pH6.0 (% of wild type) of the first is higher: 188 for the first, 65 for the second.

Compared with anti-CD20 IgG1 Q311R (antibody), anti-CD20 IgG1 K288N (antibody) is higher in FcRn pH6.0 (% of wild type): 14 for the first, 162 for the second.

Going from anti-CD20 IgG1 E430I (antibody) to anti-CD20 IgG1 Q311T (antibody), the FcRn pH6.0 (% of wild type) falls from 308 to 131.

Going from anti-CD20 IgG1 E382F (antibody) to anti-CD20 IgG1 P271T (antibody), the FcRn pH6.0 (% of wild type) falls from 222 to 96.

Compared with anti-CD20 IgG1 P247N (antibody), anti-CD20 IgG1 E283T (antibody) is higher in FcRn pH6.0 (% of wild type): 41 for the first, 143 for the second.

Compared with anti-CD20 IgG1 E269N (antibody), anti-CD20 IgG1 Q386K (antibody) is higher in FcRn pH6.0 (% of wild type): 92 for the first, 115 for the second.

Compared with anti-CD20 IgG1 I332R (antibody), “anti-CD20 antibody, IgG1 Fc region, wild type (a, z)” is lower in FcRn pH6.0 (% of wild type): 114 for the first, 100 for the second.

Going from anti-CD20 IgG1 A431K (antibody) to anti-CD20 IgG1 E283F (antibody), the FcRn pH6.0 (% of wild type) falls from 176 to 168.

First: anti-CD20 IgG1 G236R (antibody)
Second: anti-CD20 IgG1 S440Q (antibody)
The FcRn pH6.0 (% of wild type) of the first is higher: 101 for the first, 81 for the second.

First: anti-CD20 IgG1 S304E (antibody)
Second: anti-CD20 IgG1 E382L (antibody)
The FcRn pH6.0 (% of wild type) of the first is lower: 101 for the first, 126 for the second.

Compared with anti-CD20 IgG1 D280K (antibody), anti-CD20 IgG1 T256K (antibody) is lower in FcRn pH6.0 (% of wild type): 120 for the first, 31 for the second.

Compared with anti-CD20 IgG1 P238I (antibody), anti-CD20 IgG1 L314V (antibody) is lower in FcRn pH6.0 (% of wild type): 94 for the first, 21 for the second.

First: anti-CD20 IgG1 S254P (antibody)
Second: anti-CD20 IgG1 Q311N (antibody)
The FcRn pH6.0 (% of wild type) of the first is lower: 3 for the first, 54 for the second.

First: anti-CD20 IgG1 P238H (antibody)
Second: anti-CD20 IgG1 G341V (antibody)
The FcRn pH6.0 (% of wild type) of the first is higher: 72 for the first, 69 for the second.

First: anti-CD20 IgG1 N434I (antibody)
Second: anti-CD20 IgG1 G341T (antibody)
The FcRn pH6.0 (% of wild type) of the first is lower: 6 for the first, 68 for the second.

Going from anti-CD20 IgG1 E430A (antibody) to anti-CD20 IgG1 E382V (antibody), the FcRn pH6.0 (% of wild type) falls from 179 to 173.

First: anti-CD20 IgG1 V279L (antibody)
Second: anti-CD20 IgG1 Q311M (antibody)
The FcRn pH6.0 (% of wild type) of the first is lower: 78 for the first, 387 for the second.

Going from anti-CD20 IgG1 G341I (antibody) to anti-CD20 IgG1 E430K (antibody), the FcRn pH6.0 (% of wild type) rises from 36 to 131.

First: anti-CD20 IgG1 Q438L (antibody)
Second: anti-CD20 IgG1 E380T (antibody)
The FcRn pH6.0 (% of wild type) of the first is higher: 200 for the first, 172 for the second.

Compared with anti-CD20 IgG1 S440W (antibody), anti-CD20 IgG1 V379N (antibody) is lower in FcRn pH6.0 (% of wild type): 85 for the first, 74 for the second.

Going from anti-CD20 IgG1 V279D (antibody) to anti-CD20 IgG1 E283Q (antibody), the FcRn pH6.0 (% of wild type) falls from 367 to 117.

Going from anti-CD20 IgG1 Y373N (antibody) to anti-CD20 IgG1 S254M (antibody), the FcRn pH6.0 (% of wild type) falls from 61 to 0.

Going from anti-CD20 IgG1 E283S (antibody) to anti-CD20 IgG1 P247R (antibody), the FcRn pH6.0 (% of wild type) falls from 143 to 72.

Compared with anti-CD20 IgG1 N315R (antibody), anti-CD20 IgG1 Q311Y (antibody) is higher in FcRn pH6.0 (% of wild type): 71 for the first, 94 for the second.

Going from anti-CD20 IgG1 L251I (antibody) to anti-CD20 IgG1 P343G (antibody), the FcRn pH6.0 (% of wild type) rises from 7 to 110.

First: anti-CD20 IgG1 V379T (antibody)
Second: anti-CD20 IgG1 S254Q (antibody)
The FcRn pH6.0 (% of wild type) of the first is higher: 109 for the first, 9 for the second.

First: anti-CD20 IgG1 I332Q (antibody)
Second: anti-CD20 IgG1 T256M (antibody)
The FcRn pH6.0 (% of wild type) of the first is higher: 98 for the first, 35 for the second.

Compared with anti-CD20 IgG1 E380S (antibody), anti-CD20 IgG1 P247Q (antibody) is lower in FcRn pH6.0 (% of wild type): 230 for the first, 26 for the second.

First: anti-CD20 IgG1 D280T (antibody)
Second: anti-CD20 IgG1 E380A (antibody)
The FcRn pH6.0 (% of wild type) of the first is lower: 60 for the first, 152 for the second.

Compared with anti-CD20 IgG1 E269Q (antibody), anti-CD20 IgG1 D270G (antibody) is higher in FcRn pH6.0 (% of wild type): 98 for the first, 108 for the second.

Going from anti-CD20 IgG1 P257A (antibody) to anti-CD20 IgG1 L235A (antibody), the FcRn pH6.0 (% of wild type) falls from 319 to 102.

First: anti-CD20 IgG1 S440V (antibody)
Second: anti-CD20 IgG1 T256S (antibody)
The FcRn pH6.0 (% of wild type) of the first is lower: 98 for the first, 169 for the second.

Going from anti-CD20 IgG1 I332M (antibody) to anti-CD20 IgG1 E382T (antibody), the FcRn pH6.0 (% of wild type) rises from 128 to 172.

First: anti-CD20 IgG1 N434Y (antibody)
Second: anti-CD20 IgG1 P343E (antibody)
The FcRn pH6.0 (% of wild type) of the first is higher: 1620 for the first, 345 for the second.

Going from anti-CD20 IgG1 S424H (antibody) to anti-CD20 IgG1 Q311F (antibody), the FcRn pH6.0 (% of wild type) falls from 97 to 64.

Going from anti-CD20 IgG1 H268E (antibody) to anti-CD20 IgG1 Q438W (antibody), the FcRn pH6.0 (% of wild type) rises from 126 to 164.

First: anti-CD20 IgG1 Y373S (antibody)
Second: anti-CD20 IgG1 V279N (antibody)
The FcRn pH6.0 (% of wild type) of the first is lower: 74 for the first, 204 for the second.

Compared with anti-CD20 IgG1 K248F (antibody), anti-CD20 IgG1 A330R (antibody) is higher in FcRn pH6.0 (% of wild type): 0 for the first, 121 for the second.

First: anti-CD20 IgG1 E283A (antibody)
Second: anti-CD20 IgG1 I377K (antibody)
The FcRn pH6.0 (% of wild type) of the first is lower: 126 for the first, 167 for the second.

Compared with anti-CD20 IgG1 P247H (antibody), anti-CD20 IgG1 E382R (antibody) is higher in FcRn pH6.0 (% of wild type): 35 for the first, 165 for the second.

Compared with anti-CD20 IgG1 L235Q (antibody), anti-CD20 IgG1 L328V (antibody) is higher in FcRn pH6.0 (% of wild type): 81 for the first, 101 for the second.

Going from anti-CD20 IgG1 P244L (antibody) to anti-CD20 IgG1 D376Q (antibody), the FcRn pH6.0 (% of wild type) falls from 124 to 116.

First: anti-CD20 IgG1 P343V (antibody)
Second: anti-CD20 IgG1 A339E (antibody)
The FcRn pH6.0 (% of wild type) of the first is higher: 77 for the first, 75 for the second.

Going from anti-CD20 IgG1 R292L (antibody) to anti-CD20 IgG1 Y373H (antibody), the FcRn pH6.0 (% of wild type) rises from 68 to 100.

Compared with anti-CD20 IgG1 P238A (antibody), anti-CD20 IgG1 R292A (antibody) is lower in FcRn pH6.0 (% of wild type): 90 for the first, 85 for the second.

Going from anti-CD20 IgG1 E318T (antibody) to anti-CD20 IgG1 G341P (antibody), the FcRn pH6.0 (% of wild type) falls from 304 to 127.

Compared with anti-CD20 IgG1 D265H (antibody), anti-CD20 IgG1 A339Q (antibody) is higher in FcRn pH6.0 (% of wild type): 79 for the first, 102 for the second.

First: anti-CD20 IgG1 L314W (antibody)
Second: anti-CD20 IgG1 P247A (antibody)
The FcRn pH6.0 (% of wild type) of the first is lower: 5 for the first, 97 for the second.

Going from anti-CD20 IgG1 I332G (antibody) to anti-CD20 IgG1 V279M (antibody), the FcRn pH6.0 (% of wild type) rises from 94 to 122.

Compared with anti-CD20 IgG1 S254F (antibody), anti-CD20 IgG1 P247T (antibody) is higher in FcRn pH6.0 (% of wild type): 0 for the first, 75 for the second.

Going from anti-CD20 IgG1 R292I (antibody) to anti-CD20 IgG1 D270A (antibody), the FcRn pH6.0 (% of wild type) rises from 56 to 87.

Going from anti-CD20 IgG1 V279H (antibody) to anti-CD20 IgG1 D376R (antibody), the FcRn pH6.0 (% of wild type) falls from 173 to 103.

First: anti-CD20 IgG1 P247W (antibody)
Second: anti-CD20 IgG1 N315K (antibody)
The FcRn pH6.0 (% of wild type) of the first is lower: 0 for the first, 88 for the second.

Compared with anti-CD20 IgG1 E380D (antibody), anti-CD20 IgG1 E430P (antibody) is higher in FcRn pH6.0 (% of wild type): 73 for the first, 86 for the second.

Compared with anti-CD20 IgG1 Y436T (antibody), anti-CD20 IgG1 E283L (antibody) is higher in FcRn pH6.0 (% of wild type): 115 for the first, 126 for the second.

Compared with anti-CD20 IgG1 T250K (antibody), anti-CD20 IgG1 A339G (antibody) is lower in FcRn pH6.0 (% of wild type): 96 for the first, 67 for the second.

Compared with anti-CD20 IgG1 T250R (antibody), anti-CD20 IgG1 I332F (antibody) is higher in FcRn pH6.0 (% of wild type): 62 for the first, 108 for the second.

First: anti-CD20 IgG1 258D307E (antibody)
Second: anti-CD20 antibody, IgG1 Fc region, wild type (a, z)
The FcRn6.0 (% of wild type) of the first is higher: 237 for the first, 100 for the second.

Compared with anti-CD20 IgG1 283R307E (antibody), anti-CD20 IgG1 332E376V (antibody) is lower in FcRn6.0 (% of wild type): 400 for the first, 132 for the second.

First: anti-CD20 IgG1 257I311I (antibody)
Second: anti-CD20 IgG1 330R332E (antibody)
The FcRn6.0 (% of wild type) of the first is higher: 409 for the first, 94 for the second.

First: anti-CD20 IgG1 256P314Y440Y (antibody)
Second: anti-CD20 IgG1 343R345D (antibody)
The FcRn6.0 (% of wild type) of the first is lower: 79 for the first, 143 for the second.

First: anti-CD20 IgG1 247L332E376I (antibody)
Second: anti-CD20 IgG1 376V430R (antibody)
The FcRn6.0 (% of wild type) of the first is lower: 74 for the first, 188 for the second.

Work on anti-CD20 IgG1 272R286F (antibody) yielded a FcRn6.0 (% of wild type) of 338.
